Test results taken from patent US20220332804A1 (CSL INNOVATION, published 2022).

Columns and labels:
Assay in all cases: SPR, antibody captured, C2 as analyte;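 further: biacore SPR at 37 °C, anti-C2 mAbs captured via goat anti-human IgG on CM5 chips, double-referenced sensorgrams fit to a 1:1 kinetic or steady-state model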
human C2 N703A = target: T1, human C2 N703A (human, UniProt P06681 21-752)
T1 sequence: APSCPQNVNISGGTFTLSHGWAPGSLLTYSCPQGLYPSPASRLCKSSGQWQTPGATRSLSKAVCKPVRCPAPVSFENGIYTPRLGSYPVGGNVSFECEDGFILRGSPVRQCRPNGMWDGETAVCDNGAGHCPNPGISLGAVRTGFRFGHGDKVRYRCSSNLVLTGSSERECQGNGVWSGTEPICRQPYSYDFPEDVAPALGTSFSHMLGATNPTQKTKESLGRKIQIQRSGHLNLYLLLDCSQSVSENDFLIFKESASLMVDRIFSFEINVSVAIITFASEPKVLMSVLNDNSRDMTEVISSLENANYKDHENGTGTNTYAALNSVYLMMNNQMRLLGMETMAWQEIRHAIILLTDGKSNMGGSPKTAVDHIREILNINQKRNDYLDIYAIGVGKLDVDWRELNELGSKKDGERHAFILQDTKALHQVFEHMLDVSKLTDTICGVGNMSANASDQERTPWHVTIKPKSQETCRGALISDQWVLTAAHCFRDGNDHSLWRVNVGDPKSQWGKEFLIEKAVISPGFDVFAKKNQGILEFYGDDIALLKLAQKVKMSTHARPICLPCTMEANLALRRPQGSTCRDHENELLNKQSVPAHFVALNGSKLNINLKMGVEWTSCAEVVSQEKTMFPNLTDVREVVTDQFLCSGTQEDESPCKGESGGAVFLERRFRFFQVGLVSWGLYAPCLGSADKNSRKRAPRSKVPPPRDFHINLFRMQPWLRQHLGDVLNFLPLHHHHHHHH
Protocol: (§1) Surface plasmon resonance (SPR, Biacore) was used for all binding affinity analyses. In brief, goat anti-human IgG was directly immobilised onto the carboxymethyl dextran surface of CM5 sensorchips to approximately 12,000 RU using standard NHS/EDC chemistry at pH 5. The immobilised antibody surface was pre-conditioned with ten injections of polyclonal human IgG (Privigen 60 s) prepared at 1 μg/mL. Ligands (anti-C2 mAbs) were captured at the beginning of each cycle as described below. An adjacent spot or flow cell in which only Polyclonal IgG was capture was used as a reference surface. The goat anti-human IgG Fc antibody surface was regenerate in 100 mM H3PO4, injected for 45 seconds at the end of each cycle. Experiments were performed at 37° C. and the flow rate of each experiment was kept constant at 30 μL/min.
(§2) Sensogram data was double-referenced against a reference anti-IgG surface (i.e. minus anti-C2 mAb) and blank buffer injections obtained within each experiment. The binding data was fit to 1:1 (kinetic or steady-state) model using local Rmax and null refraction index (RI=0) when appropriate. Buffers and solutions were filtered (0.22 μm) prior to use.

human C2 K274A = target: T2, human C2 K274A (human, UniProt P06681 21-752)
T2 sequence: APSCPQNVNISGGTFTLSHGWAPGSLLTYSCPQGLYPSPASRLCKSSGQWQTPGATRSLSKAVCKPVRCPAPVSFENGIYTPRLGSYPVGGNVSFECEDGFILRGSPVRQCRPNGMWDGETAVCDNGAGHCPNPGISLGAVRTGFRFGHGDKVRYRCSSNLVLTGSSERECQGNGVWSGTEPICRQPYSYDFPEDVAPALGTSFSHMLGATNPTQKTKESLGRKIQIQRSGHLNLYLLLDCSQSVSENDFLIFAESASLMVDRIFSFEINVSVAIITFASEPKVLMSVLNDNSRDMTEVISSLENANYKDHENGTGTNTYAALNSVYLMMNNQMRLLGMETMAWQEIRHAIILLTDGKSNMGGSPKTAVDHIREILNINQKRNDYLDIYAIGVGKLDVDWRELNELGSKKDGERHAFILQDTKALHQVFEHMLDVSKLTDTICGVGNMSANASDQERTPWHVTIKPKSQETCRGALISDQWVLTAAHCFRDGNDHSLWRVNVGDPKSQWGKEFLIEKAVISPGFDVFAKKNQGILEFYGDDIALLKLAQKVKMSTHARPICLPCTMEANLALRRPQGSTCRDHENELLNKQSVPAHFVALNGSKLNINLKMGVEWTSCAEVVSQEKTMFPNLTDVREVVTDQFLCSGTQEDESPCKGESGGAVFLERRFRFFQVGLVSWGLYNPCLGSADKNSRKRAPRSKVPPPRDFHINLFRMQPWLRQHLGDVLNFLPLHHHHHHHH
Protocol: as §1, §2

human C2 V448A = target: T3, human C2 V448A (human, UniProt P06681 21-752)
T3 sequence: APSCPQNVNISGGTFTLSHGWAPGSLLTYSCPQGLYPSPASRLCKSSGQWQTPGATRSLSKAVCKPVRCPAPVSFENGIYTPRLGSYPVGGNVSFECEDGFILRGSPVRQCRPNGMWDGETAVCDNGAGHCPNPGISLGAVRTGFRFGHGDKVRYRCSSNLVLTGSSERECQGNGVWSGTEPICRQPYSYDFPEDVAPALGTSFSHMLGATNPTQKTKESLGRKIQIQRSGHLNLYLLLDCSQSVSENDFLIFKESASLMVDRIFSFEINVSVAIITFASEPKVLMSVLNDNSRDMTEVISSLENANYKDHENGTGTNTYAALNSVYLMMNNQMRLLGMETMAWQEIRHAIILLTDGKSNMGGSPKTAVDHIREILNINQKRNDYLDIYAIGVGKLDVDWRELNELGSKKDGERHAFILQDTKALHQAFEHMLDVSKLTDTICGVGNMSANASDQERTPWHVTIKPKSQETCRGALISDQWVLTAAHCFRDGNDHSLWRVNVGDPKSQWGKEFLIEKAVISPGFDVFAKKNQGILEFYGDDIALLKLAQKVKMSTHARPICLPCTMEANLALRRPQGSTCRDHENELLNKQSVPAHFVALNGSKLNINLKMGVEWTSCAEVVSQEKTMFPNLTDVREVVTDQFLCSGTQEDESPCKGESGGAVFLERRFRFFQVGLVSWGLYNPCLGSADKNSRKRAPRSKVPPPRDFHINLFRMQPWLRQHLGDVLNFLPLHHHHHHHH
Protocol: as §1, §2

human C2 N467A = target: T4, human C2 N467A (human, UniProt P06681 21-752)
T4 sequence: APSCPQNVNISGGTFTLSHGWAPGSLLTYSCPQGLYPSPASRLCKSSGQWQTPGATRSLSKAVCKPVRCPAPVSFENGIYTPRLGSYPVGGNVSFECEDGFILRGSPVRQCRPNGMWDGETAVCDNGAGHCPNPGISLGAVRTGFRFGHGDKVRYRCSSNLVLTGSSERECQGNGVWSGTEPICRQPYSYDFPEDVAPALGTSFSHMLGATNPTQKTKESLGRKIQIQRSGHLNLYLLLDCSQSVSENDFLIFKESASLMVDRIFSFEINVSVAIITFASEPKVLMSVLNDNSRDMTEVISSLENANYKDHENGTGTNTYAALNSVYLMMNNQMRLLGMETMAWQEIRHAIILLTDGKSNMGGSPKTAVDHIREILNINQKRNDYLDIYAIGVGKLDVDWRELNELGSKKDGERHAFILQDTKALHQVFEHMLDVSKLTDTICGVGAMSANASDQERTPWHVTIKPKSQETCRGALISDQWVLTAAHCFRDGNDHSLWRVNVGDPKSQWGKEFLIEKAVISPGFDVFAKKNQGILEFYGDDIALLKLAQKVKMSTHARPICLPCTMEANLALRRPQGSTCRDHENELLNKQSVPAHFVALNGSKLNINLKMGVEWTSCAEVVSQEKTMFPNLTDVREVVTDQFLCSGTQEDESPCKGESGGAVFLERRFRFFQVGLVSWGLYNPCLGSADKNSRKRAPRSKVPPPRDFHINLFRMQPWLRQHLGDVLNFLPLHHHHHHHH
Protocol: as §1, §2

B1: RF16-226 (antibody, human IgG4 S228P, lambda)
heavy: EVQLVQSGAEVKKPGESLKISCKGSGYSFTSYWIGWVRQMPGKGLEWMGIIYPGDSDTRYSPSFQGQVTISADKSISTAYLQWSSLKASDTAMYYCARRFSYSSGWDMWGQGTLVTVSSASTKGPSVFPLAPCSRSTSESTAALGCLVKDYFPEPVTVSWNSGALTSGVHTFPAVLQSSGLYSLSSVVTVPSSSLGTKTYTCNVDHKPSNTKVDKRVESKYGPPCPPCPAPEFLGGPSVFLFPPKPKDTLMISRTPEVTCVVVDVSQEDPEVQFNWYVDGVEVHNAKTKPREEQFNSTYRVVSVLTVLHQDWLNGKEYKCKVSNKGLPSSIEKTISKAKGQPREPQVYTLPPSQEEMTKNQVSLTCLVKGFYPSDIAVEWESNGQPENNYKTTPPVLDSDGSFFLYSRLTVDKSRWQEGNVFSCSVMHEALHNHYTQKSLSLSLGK
light: SYELTQPPSVSVSPGQTARITCSGDALTSKYVAWYQQKSGLAPLLVIYEDTRRPSGIPAKFSGSSSGSVATLTISGAHGDDEADYYCYSTDASGHQRVFGGGTKLTVLSQPKAAPSVTLFPPSSEELQANKATLVCLISDFYPGAVTVAWKADGSPVKAGVETTKPSKQSNNKYAASSYLSLTPEQWKSHRSYSCQVTHEGSTVEKTVAPTECS
notes: pH-dependent anti-C2 antibody from a phage display library; also called WT
Kd (human C2 N703A): 0.292 µM | Kd (human C2 K274A): 0.291 µM | Kd (human C2 V448A): 0.0044 µM | Kd (human C2 N467A): 0.0197 µM
